Experimental data as given in patent publication US20180086849A1 (Hoffmann-La Roche, published 2018).

Legend:
[1] = target: T1, human MCSP (Melanoma-associated Chondroitin Sulfate Proteoglycan) on cells (human, UniProt Q6UVK1 30-2322); assay: cell-based or functional assay
[2] = target: T1, human MCSP (Melanoma-associated …); assay: cell-based or functional assay; remark: listed apart in the source

T1 sequence (Q6UVK1 30-2322): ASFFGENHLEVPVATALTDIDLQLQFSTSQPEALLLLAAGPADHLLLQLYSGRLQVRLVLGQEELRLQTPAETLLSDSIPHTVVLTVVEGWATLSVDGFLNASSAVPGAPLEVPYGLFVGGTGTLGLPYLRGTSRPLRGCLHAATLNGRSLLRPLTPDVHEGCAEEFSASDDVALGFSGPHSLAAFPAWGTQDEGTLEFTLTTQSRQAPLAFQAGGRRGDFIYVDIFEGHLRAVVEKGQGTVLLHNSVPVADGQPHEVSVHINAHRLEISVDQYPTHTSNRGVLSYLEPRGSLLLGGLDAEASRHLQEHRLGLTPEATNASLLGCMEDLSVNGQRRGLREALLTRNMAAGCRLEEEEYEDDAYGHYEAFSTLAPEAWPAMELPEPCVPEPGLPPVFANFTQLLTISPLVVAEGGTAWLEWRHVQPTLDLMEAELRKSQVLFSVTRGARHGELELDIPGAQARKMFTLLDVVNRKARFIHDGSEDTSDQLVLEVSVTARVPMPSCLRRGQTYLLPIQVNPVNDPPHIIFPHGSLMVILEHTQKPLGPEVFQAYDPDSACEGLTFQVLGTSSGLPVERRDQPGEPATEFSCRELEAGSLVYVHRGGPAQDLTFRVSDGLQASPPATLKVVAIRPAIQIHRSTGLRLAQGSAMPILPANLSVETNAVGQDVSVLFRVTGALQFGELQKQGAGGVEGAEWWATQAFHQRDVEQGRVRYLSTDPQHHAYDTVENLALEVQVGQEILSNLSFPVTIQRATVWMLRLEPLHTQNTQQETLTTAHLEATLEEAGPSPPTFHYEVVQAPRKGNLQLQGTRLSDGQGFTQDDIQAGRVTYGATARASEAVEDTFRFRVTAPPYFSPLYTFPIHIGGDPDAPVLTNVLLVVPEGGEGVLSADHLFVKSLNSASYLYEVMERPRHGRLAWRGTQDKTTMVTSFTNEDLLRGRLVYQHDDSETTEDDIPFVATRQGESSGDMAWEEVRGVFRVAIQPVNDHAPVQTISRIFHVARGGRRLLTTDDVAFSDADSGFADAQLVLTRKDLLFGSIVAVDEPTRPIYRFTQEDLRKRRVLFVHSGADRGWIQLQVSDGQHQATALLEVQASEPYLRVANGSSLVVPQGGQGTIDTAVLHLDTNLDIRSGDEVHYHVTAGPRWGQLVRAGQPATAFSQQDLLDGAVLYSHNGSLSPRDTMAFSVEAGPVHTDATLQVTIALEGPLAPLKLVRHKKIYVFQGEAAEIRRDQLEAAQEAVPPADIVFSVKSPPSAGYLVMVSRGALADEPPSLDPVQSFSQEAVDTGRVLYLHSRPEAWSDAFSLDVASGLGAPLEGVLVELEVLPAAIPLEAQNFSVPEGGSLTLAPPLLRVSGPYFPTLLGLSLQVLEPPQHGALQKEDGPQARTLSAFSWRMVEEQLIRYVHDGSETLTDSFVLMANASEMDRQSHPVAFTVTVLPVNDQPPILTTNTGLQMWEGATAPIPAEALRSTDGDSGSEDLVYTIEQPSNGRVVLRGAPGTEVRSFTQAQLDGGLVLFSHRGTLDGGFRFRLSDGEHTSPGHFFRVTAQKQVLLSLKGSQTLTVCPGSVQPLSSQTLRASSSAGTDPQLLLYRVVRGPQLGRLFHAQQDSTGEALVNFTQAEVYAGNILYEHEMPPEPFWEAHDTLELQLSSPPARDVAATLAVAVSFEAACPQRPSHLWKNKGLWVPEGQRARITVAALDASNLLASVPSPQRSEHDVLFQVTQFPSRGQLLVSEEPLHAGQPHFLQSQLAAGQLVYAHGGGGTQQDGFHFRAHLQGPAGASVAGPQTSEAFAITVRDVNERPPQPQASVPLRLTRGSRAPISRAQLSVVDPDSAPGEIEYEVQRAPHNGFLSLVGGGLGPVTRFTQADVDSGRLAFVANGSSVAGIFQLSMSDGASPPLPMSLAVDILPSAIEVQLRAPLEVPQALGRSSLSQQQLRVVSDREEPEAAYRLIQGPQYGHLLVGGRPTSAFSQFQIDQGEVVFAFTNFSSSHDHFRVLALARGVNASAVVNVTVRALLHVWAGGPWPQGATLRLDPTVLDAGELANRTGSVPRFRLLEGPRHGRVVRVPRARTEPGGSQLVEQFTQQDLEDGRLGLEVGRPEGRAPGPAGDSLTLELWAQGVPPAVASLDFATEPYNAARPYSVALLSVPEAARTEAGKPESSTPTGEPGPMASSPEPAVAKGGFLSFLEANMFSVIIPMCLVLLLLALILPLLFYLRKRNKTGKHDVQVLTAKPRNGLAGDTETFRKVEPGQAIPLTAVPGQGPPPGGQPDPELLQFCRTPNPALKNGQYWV

Row | Binder | EC50 of T cell-mediated killing (LDH release) of MV-3 cells, human PBMCs, 27 h [1] | EC50 of T cell-mediated killing (LDH release) of WM266-4 cells, human PBMCs, 26 h [1] | EC50 [pM] of T cell-mediated killing (LDH release) of MV-3 cells, human PBMCs, about 24 h [2] | EC50 [pM] of T cell-mediated killing (LDH release) of WM266-4 cells, human PBMCs, about 24 h [2]
1 | 2+1 IgG Crossfab; VL/VH exchange (M4-3 ML2/V9), anti-MCSP/anti-huCD3 (bispecific antibody) chain 1: EVQLVESGGGLVQPGGSLRLSCAASGYSFTGYTMNWVRQAPGKGLEWVALINPYKGVSTYNQKFKDRFTISVDKSKNTAYLQMNSLRAEDTAVYYCARSGYYGDSDWYFDVWGQGTLVTVSSASVAAPSVFIFPPSDEQLKSGTASVVCLLNNFYPREAKVQWKVDNALQSGNSQESVTEQDSKDSTYSLSSTLTLSKADYEKHKVYACEVTHQGLSSPVTKSFNRGEC chain 2: not shown chain 3: not shown chain 4: QVQLQESGPGLVKPSQTLSLTCTVSGGSITSGYYWNWIRQHPGKGLEWIGYITYDGSNNYNPSLKSRVTISRDTSKNQFSLKLSSVTAADTAVYYCADFDYWGQGTLVTVSSASTKGPSVFPLAPSSKSTSGGTAALGCLVKDYFPEPVTVSWNSGALTSGVHTFPAVLQSSGLYSLSSVVTVPSSSLGTQTYICNVNHKPSNTKVDKKVEPKSCDKTHTCPPCPAPEAAGGPSVFLFPPKPKDTLMISRTPEVTCVVVDVSHEDPEVKFNWYVDGVEVHNAKTKPREEQYNSTYRVVSVLTVLHQDWLNGKEYKCKVSNKALGAPIEKTISKAKGQPREPQVCTLPPSRDELTKNQVSLSCAVKGFYPSDIAVEWESNGQPENNYKTTPPVLDSDGSFFLVSKLTVDKSRWQQGNVFSCSVMHEALHNHYTQKSLSLSPGK | ~82.2 pM | 16.8 pM |  | 
2 | 2+1 IgG Crossfab, inverted; CL/CH1 exchange (LC007/V9), anti-MCSP/anti-huCD3 (bispecific antibody) chain 1: DIVLTQSPSSLSASLGDRVTISCSASQGIRNYLNWYQQRPDGTVKLLIYYTSSLHSGVPSRFSGSGSGTDYSLTISNLEPEDIATYYCQQYSKLPWTFGGGTKLEIKRTVAAPSVFIFPPSDEQLKSGTASVVCLLNNFYPREAKVQWKVDNALQSGNSQESVTEQDSKDSTYSLSSTLTLSKADYEKHKVYACEVTHQGLSSPVTKSFNRGEC chain 2: EVQLQESGPGLVKPSQSLSLTCSVTGYSITSGYYWNWIRQFPGNKLEWMGYITYDGSNNYNPSLKNRISITRDTSKNQFFLKLNSVTTEDTATYYCADFDYWGQGTTLTVSSASTKGPSVFPLAPSSKSTSGGTAALGCLVKDYFPEPVTVSWNSGALTSGVHTFPAVLQSSGLYSLSSVVTVPSSSLGTQTYICNVNHKPSNTKVDKKVEPKSCDKTHTCPPCPAPEAAGGPSVFLFPPKPKDTLMISRTPEVTCVVVDVSHEDPEVKFNWYVDGVEVHNAKTKPREEQYNSTYRVVSVLTVLHQDWLNGKEYKCKVSNKALGAPIEKTISKAKGQPREPQVCTLPPSRDELTKNQVSLSCAVKGFYPSDIAVEWESNGQPENNYKTTPPVLDSDGSFFLVSKLTVDKSRWQQGNVFSCSVMHEALHNHYTQKSLSLSPGK chain 3: DIQMTQSPSSLSASVGDRVTITCRASQDIRNYLNWYQQKPGKAPKLLIYYTSRLESGVPSRFSGSGSGTDYTLTISSLQPEDFATYYCQQGNTLPWTFGQGTKVEIKSSASTKGPSVFPLAPSSKSTSGGTAALGCLVKDYFPEPVTVSWNSGALTSGVHTFPAVLQSSGLYSLSSVVTVPSSSLGTQTYICNVNHKPSNTKVDKKVEPKSC chain 4: not shown |  |  | 4.1 pM | 3.7 pM
